Substitutions are numbered along the chain they refer to.

Consider seven molecules from patent US20240010747A1, “ANTI-MRP4 (ENCODED BY ABCC4 GENE) ANTIBODIES AND USES THEREOF” (Kenjockety Biotechnology, Inc., priority 2020, published 2024).

Assay [1] has as its target T1, human ABCC4 (Homo sapiens, UniProt O15439).
T1 construct: expressed in transfected cells
T1 sequence (O15439 1-1325): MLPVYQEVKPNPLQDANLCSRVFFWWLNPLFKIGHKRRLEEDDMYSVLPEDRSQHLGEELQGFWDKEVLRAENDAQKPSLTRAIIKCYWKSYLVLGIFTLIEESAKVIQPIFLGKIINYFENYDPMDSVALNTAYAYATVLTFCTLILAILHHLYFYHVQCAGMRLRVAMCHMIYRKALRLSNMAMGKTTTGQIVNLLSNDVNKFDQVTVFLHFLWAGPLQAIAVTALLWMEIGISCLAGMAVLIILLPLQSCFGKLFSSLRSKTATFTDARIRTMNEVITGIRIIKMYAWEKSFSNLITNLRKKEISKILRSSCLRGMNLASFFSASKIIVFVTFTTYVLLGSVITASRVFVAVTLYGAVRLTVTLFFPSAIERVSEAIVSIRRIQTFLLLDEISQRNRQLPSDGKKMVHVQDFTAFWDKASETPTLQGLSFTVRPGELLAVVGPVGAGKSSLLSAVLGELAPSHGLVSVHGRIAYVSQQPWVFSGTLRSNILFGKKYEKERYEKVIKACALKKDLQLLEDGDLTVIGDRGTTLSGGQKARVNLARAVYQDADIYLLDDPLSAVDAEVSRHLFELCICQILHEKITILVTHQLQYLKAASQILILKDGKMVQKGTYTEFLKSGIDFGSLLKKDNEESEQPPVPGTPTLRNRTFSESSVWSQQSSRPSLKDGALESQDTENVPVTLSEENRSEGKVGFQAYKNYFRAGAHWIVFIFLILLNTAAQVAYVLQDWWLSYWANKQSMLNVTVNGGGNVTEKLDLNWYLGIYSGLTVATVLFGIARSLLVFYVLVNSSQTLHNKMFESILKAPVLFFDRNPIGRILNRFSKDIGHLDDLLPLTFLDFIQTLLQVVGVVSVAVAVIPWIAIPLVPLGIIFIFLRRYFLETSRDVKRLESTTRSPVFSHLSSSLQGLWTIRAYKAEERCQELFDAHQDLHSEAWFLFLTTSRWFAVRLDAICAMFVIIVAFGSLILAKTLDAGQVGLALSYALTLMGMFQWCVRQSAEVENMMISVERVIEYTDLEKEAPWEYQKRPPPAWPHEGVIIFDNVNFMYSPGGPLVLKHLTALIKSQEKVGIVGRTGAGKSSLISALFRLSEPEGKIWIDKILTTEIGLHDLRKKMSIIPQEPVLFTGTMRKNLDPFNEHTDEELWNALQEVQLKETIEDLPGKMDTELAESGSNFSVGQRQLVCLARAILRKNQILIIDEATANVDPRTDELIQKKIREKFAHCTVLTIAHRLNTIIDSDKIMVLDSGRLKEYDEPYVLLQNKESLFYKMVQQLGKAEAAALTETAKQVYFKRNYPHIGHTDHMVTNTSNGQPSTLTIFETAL
The assay is described as follows: Flow cytometry (FACS) binding to C6 cells stably transfected to express human ABCC4 (different experiment, Table 4). The note with it: for Human ABCC4 binding: C6 cells stably transfected to express human ABCC4, FACS, different experiment, Table 4; for binding to human ABCC4 expressed on cell surface: Table 4 study, stated in words. How it is done: (§1) Binding titration of recombinant antibodies to ABCC4 transfectants was performed by serial dilution of antibodies from about 666 nM. Diluted antibody in flow cytometry buffer was incubated with cells on ice for 30 min. After 2 washes with flow cytometry buffer, bound antibody was detected with PE-labeled F(ab′)2 fragment goat anti-human IgG (Jackson ImmunoResearch) diluted 1:200 in flow cytometry buffer and incubated with cells for 20 min on ice. After 2 washes with flow cytometry buffer fluorescence was measured on an Attune N×T flow cytometer. Data were analyzed with GraphPad Prism 8.0 software to determine EC50's.
(§2) Human embryonic kidney HEK 293T cells and murine C6 (ATCC CCL-107) were transfected with human or cynomolgus ABCC4 cDNA with C-terminal fused FLAG tag in a pMONO-hygro vector with Lipofectamine 3000 (Invitrogen #L3000001). The cells were treated with 0.2 mg/ml and 0.5 mg/ml hygromycin respectively for about 2 weeks while cultivated in DMEM and 10% FBS with 0.2 mg/ml hygromycin and 0.5 mg/ml hygromycin, respectively. The cells were washed with PBS, and stained with […] of anti-FLAG-PE after fixing and permeablization. Clones expressing ABCC4 were single-cell sorted into 200 μl DMEM with 10% FBS using a BD Aria FACS machine and cultivated in 96 well plates using standard techniques in an incubator at 37° C. and 5% CO 2. Two weeks later clones expressing high levels of ABCC4 were screened and amplified.
(§3) Antibody binding to cells was evaluated by flow cytometry. Murine C6 cells stably transfected to express human or cynomolgus ABCC4 were washed once in flow cytometry buffer (PBS+2% FBS+0.02% sodium azide), resuspended at 2×10^6 cells/mL in flow cytometry buffer, and dispensed into 96-well microtiter plates at 0.1 mL/well. Recombinant antibodies were added to cells at 5 ug/mL for initial binding confirmation, or serially diluted from 100 ug/mL in flow cytometry buffer. After incubating cells on ice for 30 min, cells were washed twice with flow cytometry buffer. Bound antibody was detected with PE-labeled F(ab′)2 fragment goat anti-human IgG (Jackson ImmunoResearch) and evaluated on an Attune N×T flow cytometer. EC50 is calculated to be the concentration of antibody that gives half maximal response.
(§4) In a different experiment, using a different C6.cC4 cell line, detecting the binding of anti-ABCC4 antibodies to C6 cells stably transfected to express human ABCC4 measured by FACS and to C6 cells stably transfected to express cynomolgus ABCC4 measured by FACS, the results set forth in Table 4 were obtained. Negative (−)=Rmax (MFI) below background level. Positive (+)=MFI>3× background level.
Background: Flow cytometry measures light scatter and fluorescence of single cells or particles in a stream.

The test system of assay [2] is cynomolgus ABCC4. The assay can be described thus: Flow cytometry (FACS) binding to C6 cells stably transfected to express cynomolgus ABCC4 (different experiment, different C6.cC4 cell line, Table 4). Also noted: key to Cynomolgus ABCC4 binding: Negative (−)=Rmax (MFI) below background level; Positive (+)=MFI>3× background level. The note with it: for binding to cynomolgus ABCC4 expressed on cell surface: Table 4 study, stated in words; for Cynomolgus ABCC4 binding: different C6.cC4 cell line, C6 cells stably transfected to express cynomolgus ABCC4, FACS, Table 4. Here is the method:
as §1, §2, §3, §4

B1: C4.1164: anti-ABCC4 antibody raised in rats; VH SEQ ID NO: 36, VL SEQ ID NO: 153 (antibody, V domains shown)
VH: EVQLVESDGGLVQPGRSLKLSCAASGFTFSDYYMAWVRQAPTKGLYWVASISYDGSTTYYRDSVKGRFTISRDNAKSTLYLQMGSLRSEDTATYYCARLSIRYKGVMDAWGRGASVTVS
VL: DIQMTQSPSNLAASPGESVSINCKASETIYKYLAWYQQKPGRTNKLLIYSGSTLQSGTPSRFSGSGSGTDFTLTIRNLEPEDFGRYYCQHHVEYPPTFGAGTKLELK
For B1, in assay [1], the “Human ABCC4 binding” value is “+ (Positive (+)=MFI>3× background level)”; the “binding to human ABCC4 expressed on cell surface” value (“binding to human ABCC4 expressed” for short) is “bind to both human and cynomolgus ABCC4”. In assay [2], the “binding to cynomolgus ABCC4 expressed on cell surface” value (from here on “binding to cynomolgus ABCC4 expressed”) was “bind to both human and cynomolgus ABCC4”; the “Cynomolgus ABCC4 binding” value was “+ (Positive (+)=MFI>3× background level)”.

B2: C4.1143: anti-ABCC4 antibody raised in rats; VH SEQ ID NO: 31, VL SEQ ID NO: 148 (antibody, V domains shown)
VH: EVQLVESDGGLLQPGRSLKLSCAASGFTFSDFYMAWVRQAPTKGLEWIATISHDGRNTYYRDSVKGRFTISRDNAKRTLYLEMDSLRSEDTATYYCATLTTRYKGVMEAWGQGASVTVSS
VL: DVVMTQSPSHLAASPGESVSINCKASKNIYKYLAWYQQKPGKTNKLLIYSGSTLQSGTPSRFSGSGSGSDFTLTIRNLEPEDFGLYYCQHHNEYPPTFGGGTKLEIK
In the case of B2, in assay [1], the “Human ABCC4 binding” value is listed as “+ (Positive (+)=MFI>3× background level)”; the “binding to human ABCC4 expressed” value was “bind to both human and cynomolgus ABCC4”. Moreover, in assay [2], the “binding to cynomolgus ABCC4 expressed” value was “bind to both human and cynomolgus ABCC4”; the “Cynomolgus ABCC4 binding” value is on record as “+ (Positive (+)=MFI>3× background level)”.

B3: C4.957: anti-ABCC4 antibody raised in rats; VH SEQ ID NO: 8, VL SEQ ID NO: 127 (antibody, V domains shown)
VH: EVQLKESGPGLVQPSQTLSLTCTVSGFSLTNYGVSWVRQPPGKGLEWIGAIWSGGSTGYNSALKSRLSISRDTSKSQVLLKMNSLQTEDTAMYFCARSGVEGPPFDYWGQGASVTVSS
VL: AIQVTQSPTSLSASLGDRVTLTCRASQDINNKMAWYQQKPGEVPQLLIYYASTLQSGTPSRFSGSGSGTDFSFTISHLQSEDFATYYCLQGYSLYTFGAGTKLELK
In the case of B3, in assay [1], the “Human ABCC4 binding” value is on record as “+ (Positive (+)=MFI>3× background level)”; the “binding to human ABCC4 expressed” value is “bind to both human and cynomolgus ABCC4”. For the same molecule, in assay [2], the “binding to cynomolgus ABCC4 expressed” value is “bind to both human and cynomolgus ABCC4”; the “Cynomolgus ABCC4 binding” value is on record as “+ (Positive (+)=MFI>3× background level)”.

B4: C4.956: anti-ABCC4 antibody raised in rats; VH SEQ ID NO: 7, VL SEQ ID NO: 127 (antibody, V domains shown)
VH: QLKESGPGLVKPSQSLSLTCSVTGYTITSGYDWTWLRKFPGNKMEWMGYISYSGFTNYNPSLRSRISITRDTSKNQFFLQLNSVTAEDTATYFCTRTRGYNPFPYWGQGTLVTVSS
VL: B3 VL
Consider B4, for which the “Human ABCC4 binding” value in assay [1] is recorded as “+ (Positive (+)=MFI>3× background level)”. In addition, the “Cynomolgus ABCC4 binding” value in assay [2] is listed as “−”.

B5: C4.1073: anti-ABCC4 antibody raised in rats; VH SEQ ID NO: 24, VL SEQ ID NO: 146 (antibody, V domains shown)
VH: EVQMKESGPGLVQPSQTLSLTCTVSGFSLTSYHVHWVRQPPGKGLEWMGVMWSDGDTSYNSALKSRLSINRDTSQSRVFLKMNSLQTEDTSTYYCARDRDVLYYDGDFSPFVMDAWGQGASVTVSS
VL: DIQMTQSPSNLAASPGESVSINCKASKSISKFLAWYQQKSGKANKLLIYSASTLQSGTPSRFSGSGSGTDFTLTIRNLEPEDFGLYYCQQHNEYPLTFGSGTKLEIK
With B5, in assay [1], the “Human ABCC4 binding” value is listed as “+ (Positive (+)=MFI>3× background level)”; the “binding to human ABCC4 expressed” value is “bind to both human and cynomolgus ABCC4”. Further, in assay [2], the “binding to cynomolgus ABCC4 expressed” value was “bind to both human and cynomolgus ABCC4”; the “Cynomolgus ABCC4 binding” value is reported as “+ (Positive (+)=MFI>3× background level)”.

B6: C4.1075: anti-ABCC4 antibody raised in rats; VH SEQ ID NO: 25, VL SEQ ID NO: 141 (antibody, V domains shown)
VH: EVQLKESGPGLVQPSQTLSLTCTVSGLSLISSNINWVRQPPGKGLEWIGAISSGGSAFYNSALKSRLTSSRDTSKSQVFLKMNSLQTEDTAIYFCARGGSEDPDYFDYWGQGVMVTVSS
VL: DIVMTQSPSSLAVSAGETVTINCKSSQSLLYSGNQKNYLAWYQQKPGQSPKLLIYWSSTRQSGVPDRFMGSGSGTDFTLTISSVQAEDLAIYYCQQYYDTPLTFGSGTKLEIK
B6: in assay [1], the “Human ABCC4 binding” value is reported as “+ (Positive (+)=MFI>3× background level)”; the “binding to human ABCC4 expressed” value was “bind to both human and cynomolgus ABCC4”. In assay [2], the “binding to cynomolgus ABCC4 expressed” value is “bind to both human and cynomolgus ABCC4”; the “Cynomolgus ABCC4 binding” value was “+ (Positive (+)=MFI>3× background level)”.

B7: C4.1069: anti-ABCC4 antibody raised in rats; VH SEQ ID NO: 22, VL SEQ ID NO: 144 (antibody, V domains shown)
VH: GLVQPSQTLSLTCTVSGFSLNSNGVSWVRQPPGKGLEWIVEISSGGSAFYNSALKSRLSISRDTSKSQVFLKMNSLQTEDTAIYFCTRGGTEDPDYFDYWGQGASVTVSS
VL: B6 VL with M4L, K45T, S57A, M69I, T78I, S82T, L102V, I112L
Turning to B7, in assay [1], the “Human ABCC4 binding” value was “+ (Positive (+)=MFI>3× background level)”; the “binding to human ABCC4 expressed” value is “bind to both human and cynomolgus ABCC4”. Moreover, in assay [2], the “binding to cynomolgus ABCC4 expressed” value is “bind to both human and cynomolgus ABCC4”; the “Cynomolgus ABCC4 binding” value is “+ (Positive (+)=MFI>3× background level)”.
